Measured values taken from article PMC8968458.

Target: p65 (UniProt Q04206)
Test: pull-down of SFB-tagged RB-N from cells
Conditions: reference: SFB-RB-N wild type; sites S249,T252

- binding against the reference: weaker
Substance: RB N-terminal portion (RB-N) (from UniProt P06400) S249A/T252A
